In experiment [1] the target is T1, human calcitonin receptor (human, UniProt P30988 25-474).
T1 construct: whole, on cells; also called hCTR; hCT
T1 sequence (looked up): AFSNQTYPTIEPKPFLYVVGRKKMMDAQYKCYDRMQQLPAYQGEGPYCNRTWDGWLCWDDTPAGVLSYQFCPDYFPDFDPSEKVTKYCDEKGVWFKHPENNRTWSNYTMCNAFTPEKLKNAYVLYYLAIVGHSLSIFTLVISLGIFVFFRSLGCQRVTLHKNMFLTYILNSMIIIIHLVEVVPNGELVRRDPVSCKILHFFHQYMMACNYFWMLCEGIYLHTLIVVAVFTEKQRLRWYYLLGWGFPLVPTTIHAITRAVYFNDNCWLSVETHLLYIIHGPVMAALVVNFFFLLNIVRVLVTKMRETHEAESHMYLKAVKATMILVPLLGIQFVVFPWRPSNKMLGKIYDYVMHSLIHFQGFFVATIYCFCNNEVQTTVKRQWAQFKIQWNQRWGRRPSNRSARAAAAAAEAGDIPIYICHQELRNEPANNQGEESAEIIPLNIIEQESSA
Nature of the experiment: ratio of IC50 at hCTR to IC50 at the human amylin receptor (reference). The procedure: The resulting pellet was resuspended, homogenized and centrifuged (20.000 rpm, 15 min) in a buffer containing 20 mM Na-HEPES and 0.1 mM EDTA (pH 7.4, buffer 2). The resulting pellet was resuspended in buffer 2 and protein concentration was measured (BCA protein Assay, Pierce). The homogenate was kept cold during the whole procedure. The membranes were kept at −80° C. until use. The assay was performed in a 384 well Optiplate (PerkinElmer) in a total volume of 40 ul. Membranes were mixed with SPA beads. Final concentration of membranes 35 ng/μL final and SPA beads was 0.05 mg/well. Test-compounds were dissolved in DMSO and further diluted in assay buffer (50 mM Hepes, pH 7.4, 1 mM CaCl2, 5 mM MgCl₂, 0.1% OA and 0.02% Tween20). […] The final mixture was incubated with shaking at 400 rpm for 120 min at 25° C. prior to centrifugation (1500 rpm, 10 min). Samples were analyzed on TopCounter™ (Packard). The IC₅₀ was calculated using (one site binding competition analysis) GraphPad Prism5 as a measure of receptor affinity.
Membranes were prepared in the following way; the cells were rinsed with PBS and incubated with Versene for approximately 5 min before harvesting. The cells were flushed with PBS and the cell-suspension was centrifuged for 5 min at 1000 rpm. Cells were homogenized (Ultrathurrax) in a buffer containing 20 mM Na-HEPES and 10 mM EDTA (pH 7.4) and centrifuged at 20.000 rpm for 15 min. The resulting pellet was resuspended, homogenized and centrifuged (20.000 rpm, 15 min) in a buffer containing 20 mM Na-HEPES and 0.1 mM EDTA (pH 7.4, buffer 2). The resulting pellet was resuspended in buffer 2 and protein concentration was measured (BCA protein Assay, Pierce). The homogenate was kept cold during the whole procedure. The membranes were kept at −80° C. until use. Assay was performed in a 384 well Optiplate (PerkinElmer) in a total volume of 40 ul. Membranes were mixed with SPA beads.

The target of experiment [2] is T1, human calcitonin receptor. Nature of the experiment: SPA competition binding, membranes with human calcitonin receptor, displacement of 125I-calcitonin (Assay VII). The method, then:
Membranes were prepared in the following way; the cells were rinsed with PBS and incubated with Versene for approximately 5 min before harvesting. The cells were flushed with PBS and the cell-suspension was centrifuged for 5 min at 1000 rpm. Cells were homogenized (Ultrathurrax) in a buffer containing 20 mM Na-HEPES and 10 mM EDTA (pH 7.4) and centrifuged at 20.000 rpm for 15 min. The resulting pellet was resuspended, homogenized and centrifuged (20.000 rpm, 15 min) in a buffer containing 20 mM Na-HEPES and 0.1 mM EDTA (pH 7.4, buffer 2). The resulting pellet was resuspended in buffer 2 and protein concentration was measured (BCA protein Assay, Pierce). The homogenate was kept cold during the whole procedure. The membranes were kept at −80° C. until use. Assay was performed in a 384 well Optiplate (PerkinElmer) in a total volume of 40 ul. Membranes were mixed with SPA beads. Final concentration of membranes 35 ng/μL final and Final concentration of SPA beads was 0.05 mg/well. Test-compounds were dissolved in DMSO and further diluted in assay buffer (50 mM Hepes, pH 7.4, 1 mM CaCl2, 5 mM MgCl₂, 0.1% OA and 0.02% Tween20). […] The final mixture was incubated for 120 min with shaking at 400 rpm at 25° C. prior to centrifugation (1500 rpm, 10 min). Samples were analyzed on TopCounter™ (Packard). The […] was calculated using (one site binding competition analysis) GraphPad Prism5 as a measure of receptor affinity.
Background: Displacement assays read how much labelled ligand stays bound in the presence of the test substance.

Numbered stars: 1 amine (or outer) side, 2 acyl side, 3 side chain; on linkers, the order of the positions; unused ones are H or OH. Bridge positions count the residues as written; N and C are the ends. * marks the point of attachment. C20 diacid = O=C(O)CCCCCCCCCCCCCCCCCCC(=O)*; γGlu = O=C(O)[C@H](CCC(=O)[*:2])N[*:1]

B1: N^α1-[(4S)-4-carboxy-4-(19-carboxynonadecanoylamino)butanoyl]-[Glu14,Arg17,Pro21,Pro25,Pro28,Pro29]-h-amylin (peptide)
peptide: {C20 diacid-γGlu}-KCNTATCATQRLAEFLRHSSPNFGPILPPTNVGSNTY-NH2
modifications: disulfide 2-7
SMILES: CC[C@H](C)[C@H](NC(=O)[C@@H]1CCCN1C(=O)CNC(=O)[C@H](Cc1ccccc1)NC(=O)[C@H](CC(N)=O)NC(=O)[C@@H]1CCCN1C(=O)[C@H](CO)NC(=O)[C@H](CO)NC(=O)[C@H](Cc1c[nH]cn1)NC(=O)[C@H](CCCNC(=N)N)NC(=O)[C@H](CC(C)C)NC(=O)[C@H](Cc1ccccc1)NC(=O)[C@H](CCC(=O)O)NC(=O)[C@H](C)NC(=O)[C@H](CC(C)C)NC(=O)[C@H](CCCNC(=N)N)NC(=O)[C@H](CCC(N)=O)NC(=O)[C@@H](NC(=O)[C@H](C)NC(=O)[C@@H]1CSSC[C@H](NC(=O)[C@H](CCCCN)NC(=O)CC[C@H](NC(=O)CCCCCCCCCCCCCCCCCCC(=O)O)C(=O)O)C(=O)N[C@@H](CC(N)=O)C(=O)N[C@@H]([C@@H](C)O)C(=O)N[C@@H](C)C(=O)N[C@@H]([C@@H](C)O)C(=O)N1)[C@@H](C)O)C(=O)N[C@@H](CC(C)C)C(=O)N1CCC[C@H]1C(=O)N1CCC[C@H]1C(=O)N[C@H](C(=O)N[C@@H](CC(N)=O)C(=O)N[C@H](C(=O)NCC(=O)N[C@@H](CO)C(=O)N[C@@H](CC(N)=O)C(=O)N[C@H](C(=O)N[C@@H](Cc1ccc(O)cc1)C(N)=O)[C@@H](C)O)C(C)C)[C@@H](C)O
notes: also called compound 6
In the case of B1, the “Ratio hCT/hAmylin binding” value in experiment [1] was determined as 20. Also, the half-inhibitory concentration (IC50) (usually the concentration that gives 50% inhibition) in experiment [2] turned out to be 19.9 nM.

B2: N^α1-[(4S)-4-carboxy-4-(19-carboxynonadecanoylamino)butanoyl]-[Glu14,Arg17,Pro21,Pro26,Pro37]-h-amylin (peptide)
peptide: {C20 diacid-γGlu}-KCNTATCATQRLAEFLRHSSPNFGAPLSSTNVGSNTP-NH2
modifications: disulfide 2-7
SMILES: CC(C)C[C@H](NC(=O)[C@H](CCCNC(=N)N)NC(=O)[C@H](CCC(N)=O)NC(=O)[C@@H](NC(=O)[C@H](C)NC(=O)[C@@H]1CSSC[C@H](NC(=O)[C@H](CCCCN)NC(=O)CC[C@H](NC(=O)CCCCCCCCCCCCCCCCCCC(=O)O)C(=O)O)C(=O)N[C@@H](CC(N)=O)C(=O)N[C@@H]([C@@H](C)O)C(=O)N[C@@H](C)C(=O)N[C@@H]([C@@H](C)O)C(=O)N1)[C@@H](C)O)C(=O)N[C@@H](C)C(=O)N[C@@H](CCC(=O)O)C(=O)N[C@@H](Cc1ccccc1)C(=O)N[C@@H](CC(C)C)C(=O)N[C@@H](CCCNC(=N)N)C(=O)N[C@@H](Cc1c[nH]cn1)C(=O)N[C@@H](CO)C(=O)N[C@@H](CO)C(=O)N1CCC[C@H]1C(=O)N[C@@H](CC(N)=O)C(=O)N[C@@H](Cc1ccccc1)C(=O)NCC(=O)N[C@@H](C)C(=O)N1CCC[C@H]1C(=O)N[C@@H](CC(C)C)C(=O)N[C@@H](CO)C(=O)N[C@@H](CO)C(=O)N[C@H](C(=O)N[C@@H](CC(N)=O)C(=O)N[C@H](C(=O)NCC(=O)N[C@@H](CO)C(=O)N[C@@H](CC(N)=O)C(=O)N[C@H](C(=O)N1CCC[C@H]1C(N)=O)[C@@H](C)O)C(C)C)[C@@H](C)O
notes: also called compound 5
Regarding B2, in experiment [1], the “Ratio hCT/hAmylin binding” value worked out at 1.4. For the same molecule, in experiment [2], the IC50 was found to be 0.537 nM.

B3: N^α1-[(4S)-4-carboxy-4-(19-carboxynonadecanoylamino)butanoyl]-[Glu14,Arg17,Pro21,Pro27,Arg35]-h-amylin (peptide)
peptide: {C20 diacid-γGlu}-KCNTATCATQRLAEFLRHSSPNFGAIPSSTNVGSRTY-NH2
modifications: disulfide 2-7
SMILES: CC[C@H](C)[C@H](NC(=O)[C@H](C)NC(=O)CNC(=O)[C@H](Cc1ccccc1)NC(=O)[C@H](CC(N)=O)NC(=O)[C@@H]1CCCN1C(=O)[C@H](CO)NC(=O)[C@H](CO)NC(=O)[C@H](Cc1c[nH]cn1)NC(=O)[C@H](CCCNC(=N)N)NC(=O)[C@H](CC(C)C)NC(=O)[C@H](Cc1ccccc1)NC(=O)[C@H](CCC(=O)O)NC(=O)[C@H](C)NC(=O)[C@H](CC(C)C)NC(=O)[C@H](CCCNC(=N)N)NC(=O)[C@H](CCC(N)=O)NC(=O)[C@@H](NC(=O)[C@H](C)NC(=O)[C@@H]1CSSC[C@H](NC(=O)[C@H](CCCCN)NC(=O)CC[C@H](NC(=O)CCCCCCCCCCCCCCCCCCC(=O)O)C(=O)O)C(=O)N[C@@H](CC(N)=O)C(=O)N[C@@H]([C@@H](C)O)C(=O)N[C@@H](C)C(=O)N[C@@H]([C@@H](C)O)C(=O)N1)[C@@H](C)O)C(=O)N1CCC[C@H]1C(=O)N[C@@H](CO)C(=O)N[C@@H](CO)C(=O)N[C@H](C(=O)N[C@@H](CC(N)=O)C(=O)N[C@H](C(=O)NCC(=O)N[C@@H](CO)C(=O)N[C@@H](CCCNC(=N)N)C(=O)N[C@H](C(=O)N[C@@H](Cc1ccc(O)cc1)C(N)=O)[C@@H](C)O)C(C)C)[C@@H](C)O
notes: also called compound 16
Take B3: the “Ratio hCT/hAmylin binding” value in experiment [1] stood at 19.1. For the same molecule, in experiment [2], the IC50 came out at 17.1 nM.

B4: N^α1-[(4S)-4-carboxy-4-(19-carboxynonadecanoylamino)butanoyl]-[Glu14,Arg17,Pro21,Pro26]-h-amylin (peptide)
peptide: {C20 diacid-γGlu}-KCNTATCATQRLAEFLRHSSPNFGAPLSSTNVGSNTY-NH2
modifications: disulfide 2-7
SMILES: CC(C)C[C@H](NC(=O)[C@H](CCCNC(=N)N)NC(=O)[C@H](CCC(N)=O)NC(=O)[C@@H](NC(=O)[C@H](C)NC(=O)[C@@H]1CSSC[C@H](NC(=O)[C@H](CCCCN)NC(=O)CC[C@H](NC(=O)CCCCCCCCCCCCCCCCCCC(=O)O)C(=O)O)C(=O)N[C@@H](CC(N)=O)C(=O)N[C@@H]([C@@H](C)O)C(=O)N[C@@H](C)C(=O)N[C@@H]([C@@H](C)O)C(=O)N1)[C@@H](C)O)C(=O)N[C@@H](C)C(=O)N[C@@H](CCC(=O)O)C(=O)N[C@@H](Cc1ccccc1)C(=O)N[C@@H](CC(C)C)C(=O)N[C@@H](CCCNC(=N)N)C(=O)N[C@@H](Cc1c[nH]cn1)C(=O)N[C@@H](CO)C(=O)N[C@@H](CO)C(=O)N1CCC[C@H]1C(=O)N[C@@H](CC(N)=O)C(=O)N[C@@H](Cc1ccccc1)C(=O)NCC(=O)N[C@@H](C)C(=O)N1CCC[C@H]1C(=O)N[C@@H](CC(C)C)C(=O)N[C@@H](CO)C(=O)N[C@@H](CO)C(=O)N[C@H](C(=O)N[C@@H](CC(N)=O)C(=O)N[C@H](C(=O)NCC(=O)N[C@@H](CO)C(=O)N[C@@H](CC(N)=O)C(=O)N[C@H](C(=O)N[C@@H](Cc1ccc(O)cc1)C(N)=O)[C@@H](C)O)C(C)C)[C@@H](C)O
notes: also called compound 7
With B4, the “Ratio hCT/hAmylin binding” value in experiment [1] was determined as 16.5. For the same molecule, the 50% inhibitory concentration (IC50) in experiment [2] was determined as 11.1 nM.

Source of the values: US20140087995A1 (published 2014).
